From patent US20250352661A1 (MYTHIC THERAPEUTICS, published 2025) come the findings set out here.

Test [1] addresses T1, LRRC15 on LRRC15 positive cell lines SAOS2 and G292 (UniProt Q8TF66 22-581, limits assumed).
T1 construct: whole, on cells
T1 sequence (looked up): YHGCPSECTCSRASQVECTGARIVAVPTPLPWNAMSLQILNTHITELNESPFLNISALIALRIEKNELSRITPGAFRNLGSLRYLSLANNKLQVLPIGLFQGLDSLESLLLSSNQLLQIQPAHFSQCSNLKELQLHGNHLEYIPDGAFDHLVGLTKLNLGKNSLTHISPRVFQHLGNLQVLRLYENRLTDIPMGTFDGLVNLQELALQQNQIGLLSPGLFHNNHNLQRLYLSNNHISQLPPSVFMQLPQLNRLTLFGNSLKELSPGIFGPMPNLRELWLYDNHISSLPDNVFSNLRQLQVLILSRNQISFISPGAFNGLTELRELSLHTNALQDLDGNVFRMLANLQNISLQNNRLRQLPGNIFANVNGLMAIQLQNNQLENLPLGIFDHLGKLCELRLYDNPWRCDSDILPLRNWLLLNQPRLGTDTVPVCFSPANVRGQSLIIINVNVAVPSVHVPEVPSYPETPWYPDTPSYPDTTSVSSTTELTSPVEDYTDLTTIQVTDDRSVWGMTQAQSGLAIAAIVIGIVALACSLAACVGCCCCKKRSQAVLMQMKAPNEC
As to the kind of experiment: cell binding on G292 cells (LRRC15 positive), pH 6.4.

Test [2] has as its target T1, LRRC15 on LRRC15 positive cell lines …. As to the kind of experiment: cell binding on G292 cells (LRRC15 positive), pH 7.4. Further details: unit not given here.
Test [3] has the same target. As to the kind of experiment: cell binding on SAOS2 cells (LRRC15 positive), pH 6.4.
Test [4] has the same target. As to the kind of experiment: cell binding on SAOS2 cells (LRRC15 positive), pH 7.4. Further details: unit not given here.
The target in test [5] is T2, LRRC15 on the surface of LRRC15+ cells (SAOS-2, U87MG) (UniProt Q8TF66 22-581, limits assumed).
T2 sequence (looked up): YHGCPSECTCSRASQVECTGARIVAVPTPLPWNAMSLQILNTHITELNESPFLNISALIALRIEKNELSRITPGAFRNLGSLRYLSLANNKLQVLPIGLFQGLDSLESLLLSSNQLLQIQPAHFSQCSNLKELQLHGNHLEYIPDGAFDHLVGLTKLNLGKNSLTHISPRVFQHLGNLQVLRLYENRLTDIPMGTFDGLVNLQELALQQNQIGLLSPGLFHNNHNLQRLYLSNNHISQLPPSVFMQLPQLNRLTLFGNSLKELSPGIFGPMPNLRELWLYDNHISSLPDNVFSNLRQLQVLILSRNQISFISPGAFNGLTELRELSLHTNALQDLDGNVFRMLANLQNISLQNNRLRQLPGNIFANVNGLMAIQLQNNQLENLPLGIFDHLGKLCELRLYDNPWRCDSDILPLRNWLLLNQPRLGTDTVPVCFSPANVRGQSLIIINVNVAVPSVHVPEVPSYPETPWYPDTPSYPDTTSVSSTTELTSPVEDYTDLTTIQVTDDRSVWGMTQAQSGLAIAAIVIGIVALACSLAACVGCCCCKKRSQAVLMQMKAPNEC
As to the kind of experiment: cell-based or functional assay.

B1: MYT3315 (antibody, V domains shown)
VH: EVQLVESGGGLVQPGGSLRLSCAVSGFSLTSYGVHWVRQATGKGLEWLGVIWAGGSTNYNSALMSRLTISKENAKSSVYLQMNSLRAGDTAMYYCATHMITEDYYGMDYWGQGTTVTVSS
VL: DIVMTQSPDSLAVSLGERATINCKSSQSLLNSRTRKNYLAWYQQKPGQSPKLLIYWASTRHSGVPDRFSGSGSGTDFTLTISSLQAEDVAVYYCKQSYNLPTFGGGTKVEIK
notes: also called hu139.10 LC His Variant; hu139.10 LC His Var
For B1, the Affinity in test [1] is 0.251; in test [2], 0.155; in test [3], 0.398; in test [4] it was 0.296.

B2: Samrotamab V205C ADC (antibody, part only; not given: V205C light chain and payload, V domains shown, part only)
VH: EVQLVQSGAEVKKPGASVKVSCKASGYKFSSYWIEWVKQAPGQGLEWIGEILPGSDTTNYNEKFKDRATFTSDTSINTAYMELSRLRSDDTAVYYCARDRGNYRAWFGYWGQGTLVTVSS
Consider B2, for which the 20 nM Efficacy (cytotoxicity of candidates against SAOS-2 cells) in test [5] came out at 16.4.

B3: MYT2737 (antibody, V domains shown)
VH: EVQLVQSGAEVKKPGASVKVSCKASGYKFSSYWIEWVKQAPGQGLEWIGEILPGSDTTNYNEKFKDRATFTSDTSINTAYMELSRLRSDDTAVYYCARDRGNYRAWFGYWGQGTLVTVSS
VL: DIQMTQSPSSLSASVGDRVTITCRASQDISNYLNWYQQKPGGAVKFLIYHTSRLHSGVPSRFSGSGSGTDYTLTISSLQPEDFATYFCQQGEALPWTFGGGTKVEIK
notes: also called Sam; LC His Variant; samrotamab LC His Var
Turning to B3, the Affinity turned out to be 0.676 in test [1], 0.528 in test [2], 0.92 in test [3] and 0.84 in test [4].
